In the supplement of paper PMC10567573:

B1: ZNF449 (parent)
chain: HKKKSPGEKPHRCPQCGKCFARKS

Variants of: B1
Assay: protein stability index of a GFP-peptide fusion (GPS, HEK-293T) (PSI 1-6); higher = more stable
Conditions: c terminus: a fixed tail appended
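Also: lentivirally expressed fusions sorted by FACS into six bins by GFP to DsRed ratio, PSI derived from sequencing read proportions per bin multiplied by bin number.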

**Q.** For HKKKSNGEKPHRCPQCGKCFARKS [P6N], which protein stability index is on record?
**A.** 3.44

**Q.** With HKKKSEGEKPHRCPQCGKCFARKS [P6E] as the variant, how does the protein stability index read?
**A.** 3.4

**Q.** For HKKKSWGEKPHRCPQCGKCFARKS [P6W], which protein stability index is on record?
**A.** 3.05

**Q.** With HKKKSTGEKPHRCPQCGKCFARKS [P6T] as the variant, how does the protein stability index read?
**A.** 4.38

**Q.** For HKKKSDGEKPHRCPQCGKCFARKS [P6D], which protein stability index is on record?
**A.** 2.73

**Q.** Which protein stability index does the source give for HKKKSIGEKPHRCPQCGKCFARKS [P6I] here?
**A.** 3.19

**Q.** With HKKKSYGEKPHRCPQCGKCFARKS [P6Y] as the variant, how does the protein stability index read?
**A.** 3.94

**Q.** With HKKKSVGEKPHRCPQCGKCFARKS [P6V] as the variant, how does the protein stability index read?
**A.** 2.98

**Q.** With HKKKSQGEKPHRCPQCGKCFARKS [P6Q] as the variant, how does the protein stability index read?
**A.** 3.57

**Q.** Which protein stability index does the source give for HKKKSGGEKPHRCPQCGKCFARKS [P6G] here?
**A.** 4.52

**Q.** For HKKKSPGEKMHRCPQCGKCFARKS [P10M], which protein stability index is on record?
**A.** 4.07

**Q.** Which protein stability index does the source give for HKKKSPGEKFHRCPQCGKCFARKS [P10F] here?
**A.** 3.15

**Q.** With HKKKSPGEKQHRCPQCGKCFARKS [P10Q] as the variant, how does the protein stability index read?
**A.** 3.09

**Q.** Which protein stability index does the source give for HKKKSPGEKIHRCPQCGKCFARKS [P10I] here?
**A.** 3.58

**Q.** Which protein stability index does the source give for HKKKSPGEKAHRCPQCGKCFARKS [P10A] here?
**A.** 4.54

**Q.** For HKKKSPGEKVHRCPQCGKCFARKS [P10V], which protein stability index is on record?
**A.** 3.65

**Q.** With HKKKSPGEKLHRCPQCGKCFARKS [P10L] as the variant, how does the protein stability index read?
**A.** 4.06

**Q.** For HKKKSPGEKKHRCPQCGKCFARKS [P10K], which protein stability index is on record?
**A.** 4.63

**Q.** With HKKKSPGEKCHRCPQCGKCFARKS [P10C] as the variant, how does the protein stability index read?
**A.** 2.56

**Q.** For HKKKSPGEKDHRCPQCGKCFARKS [P10D], which protein stability index is on record?
**A.** 3.74

**Q.** Which protein stability index does the source give for HKKKSPGEKRHRCPQCGKCFARKS [P10R] here?
**A.** 3.31

**Q.** For HKKKSPGEKEHRCPQCGKCFARKS [P10E], which protein stability index is on record?
**A.** 3.52

**Q.** Which protein stability index does the source give for HKKKSPGEKTHRCPQCGKCFARKS [P10T] here?
**A.** 3.83

**Q.** With HKKKSPGEKNHRCPQCGKCFARKS [P10N] as the variant, how does the protein stability index read?
**A.** 3.3

**Q.** Which protein stability index does the source give for HKKKSPGEKSHRCPQCGKCFARKS [P10S] here?
**A.** 3.86

**Q.** For HKKKSPGCKPHRCPQCGKCFARKS [E8C], which protein stability index is on record?
**A.** 3.64

**Q.** For HKKKSPGMKPHRCPQCGKCFARKS [E8M], which protein stability index is on record?
**A.** 2.93

**Q.** With HKKKSPGVKPHRCPQCGKCFARKS [E8V] as the variant, how does the protein stability index read?
**A.** 3.79

**Q.** Which protein stability index does the source give for HKKKSPGAKPHRCPQCGKCFARKS [E8A] here?
**A.** 3.41

**Q.** For HKKKSPGQKPHRCPQCGKCFARKS [E8Q], which protein stability index is on record?
**A.** 2.99

**Q.** For HKKKSPGIKPHRCPQCGKCFARKS [E8I], which protein stability index is on record?
**A.** 3.17

**Q.** Which protein stability index does the source give for HKKKSPGNKPHRCPQCGKCFARKS [E8N] here?
**A.** 2.75

**Q.** Which protein stability index does the source give for HKKKSPGRKPHRCPQCGKCFARKS [E8R] here?
**A.** 3.99

**Q.** With HKKKSPGFKPHRCPQCGKCFARKS [E8F] as the variant, how does the protein stability index read?
**A.** 3.14

**Q.** With HKKKSPGYKPHRCPQCGKCFARKS [E8Y] as the variant, how does the protein stability index read?
**A.** 3.9

**Q.** With HKKKSPGKKPHRCPQCGKCFARKS [E8K] as the variant, how does the protein stability index read?
**A.** 3.57

**Q.** With HKKKSPGLKPHRCPQCGKCFARKS [E8L] as the variant, how does the protein stability index read?
**A.** 3.01

**Q.** Which protein stability index does the source give for HKKKSPGWKPHRCPQCGKCFARKS [E8W] here?
**A.** 3.36

**Q.** For HKKKSPGDKPHRCPQCGKCFARKS [E8D], which protein stability index is on record?
**A.** 3.81

**Q.** Which protein stability index does the source give for HKKKSPGPKPHRCPQCGKCFARKS [E8P] here?
**A.** 3.63

**Q.** Which protein stability index does the source give for HKKKSPGHKPHRCPQCGKCFARKS [E8H] here?
**A.** 3.92

**Q.** For HKKKSPGEKPHRCPQPGKCFARKS [C16P], which protein stability index is on record?
**A.** 4.48

**Q.** Which protein stability index does the source give for HKKKSPGEKPHRCPQYGKCFARKS [C16Y] here?
**A.** 4.59

**Q.** With HKKKSPGEKPHRCPQIGKCFARKS [C16I] as the variant, how does the protein stability index read?
**A.** 4.24

**Q.** For HKKKSPGEKPHRCPQGGKCFARKS [C16G], which protein stability index is on record?
**A.** 4.53

**Q.** With HKKKSPGEKPHRCPQEGKCFARKS [C16E] as the variant, how does the protein stability index read?
**A.** 4.71

**Q.** For HKKKSPGEKPHRCPQHGKCFARKS [C16H], which protein stability index is on record?
**A.** 2.71

**Q.** Which protein stability index does the source give for HKKKSPGEKPHRCPQAGKCFARKS [C16A] here?
**A.** 4.73

**Q.** Which protein stability index does the source give for HKKKSPGEKPHRCPQTGKCFARKS [C16T] here?
**A.** 3.71

**Q.** Which protein stability index does the source give for HKKKSPGEKPHRCPQRGKCFARKS [C16R] here?
**A.** 3.42

**Q.** With HKKKSPGEKPHRCPQNGKCFARKS [C16N] as the variant, how does the protein stability index read?
**A.** 3.64

**Q.** With HKKKSPGEKPHRCPQQGKCFARKS [C16Q] as the variant, how does the protein stability index read?
**A.** 4.18

**Q.** For HKKKSPGEKPHRCPMCGKCFARKS [Q15M], which protein stability index is on record?
**A.** 3.95

**Q.** Which protein stability index does the source give for HKKKSPGEKPHRCPECGKCFARKS [Q15E] here?
**A.** 3.38

**Q.** With HKKKSPGEKPHRCPYCGKCFARKS [Q15Y] as the variant, how does the protein stability index read?
**A.** 3.6

**Q.** With HKKKSPGEKPHRCPICGKCFARKS [Q15I] as the variant, how does the protein stability index read?
**A.** 3.45

**Q.** For HKKKSPGEKPHRCPKCGKCFARKS [Q15K], which protein stability index is on record?
**A.** 3.25

**Q.** Which protein stability index does the source give for HKKKSPGEKPHRCPFCGKCFARKS [Q15F] here?
**A.** 3.19

**Q.** With HKKKSPGEKPHRCPWCGKCFARKS [Q15W] as the variant, how does the protein stability index read?
**A.** 3.45

**Q.** For HKKKSPGEKPHRCPHCGKCFARKS [Q15H], which protein stability index is on record?
**A.** 3.24

**Q.** For HKKKSPGELPHRCPQCGKCFARKS [K9L], which protein stability index is on record?
**A.** 2.42

**Q.** With HKKKSPGEYPHRCPQCGKCFARKS [K9Y] as the variant, how does the protein stability index read?
**A.** 3.75

**Q.** Which protein stability index does the source give for HKKKSPGERPHRCPQCGKCFARKS [K9R] here?
**A.** 3.94

**Q.** For HKKKSPGENPHRCPQCGKCFARKS [K9N], which protein stability index is on record?
**A.** 4.35

**Q.** For HKKKSPGEWPHRCPQCGKCFARKS [K9W], which protein stability index is on record?
**A.** 3.66

**Q.** Which protein stability index does the source give for HKKKSPGEHPHRCPQCGKCFARKS [K9H] here?
**A.** 2.57

**Q.** Which protein stability index does the source give for HKKKSPGEFPHRCPQCGKCFARKS [K9F] here?
**A.** 3.38

**Q.** For HKKKSPGEMPHRCPQCGKCFARKS [K9M], which protein stability index is on record?
**A.** 4.23

**Q.** With HKKKSPVEKPHRCPQCGKCFARKS [G7V] as the variant, how does the protein stability index read?
**A.** 3.76

**Q.** With HKKKSPIEKPHRCPQCGKCFARKS [G7I] as the variant, how does the protein stability index read?
**A.** 2.94

**Q.** With HKKKSPAEKPHRCPQCGKCFARKS [G7A] as the variant, how does the protein stability index read?
**A.** 3.46

**Q.** With HKKKSPQEKPHRCPQCGKCFARKS [G7Q] as the variant, how does the protein stability index read?
**A.** 3.2

**Q.** Which protein stability index does the source give for HKKKSPFEKPHRCPQCGKCFARKS [G7F] here?
**A.** 3.53

**Q.** Which protein stability index does the source give for HKKKSPNEKPHRCPQCGKCFARKS [G7N] here?
**A.** 3.52

**Q.** With HKKKSPYEKPHRCPQCGKCFARKS [G7Y] as the variant, how does the protein stability index read?
**A.** 3.55

**Q.** For HKKKSPMEKPHRCPQCGKCFARKS [G7M], which protein stability index is on record?
**A.** 3.46

**Q.** Which protein stability index does the source give for HKKKSPPEKPHRCPQCGKCFARKS [G7P] here?
**A.** 4.25

**Q.** For HKKKSPSEKPHRCPQCGKCFARKS [G7S], which protein stability index is on record?
**A.** 3.36

**Q.** For HKKKSPTEKPHRCPQCGKCFARKS [G7T], which protein stability index is on record?
**A.** 3.58

**Q.** Which protein stability index does the source give for HKFKSPGEKPHRCPQCGKCFARKS [K3F] here?
**A.** 3.19

**Q.** Which protein stability index does the source give for HKRKSPGEKPHRCPQCGKCFARKS [K3R] here?
**A.** 3.46

**Q.** With HKQKSPGEKPHRCPQCGKCFARKS [K3Q] as the variant, how does the protein stability index read?
**A.** 3.14

**Q.** With HKVKSPGEKPHRCPQCGKCFARKS [K3V] as the variant, how does the protein stability index read?
**A.** 3.51

**Q.** Which protein stability index does the source give for HKIKSPGEKPHRCPQCGKCFARKS [K3I] here?
**A.** 3.15

**Q.** Which protein stability index does the source give for HKPKSPGEKPHRCPQCGKCFARKS [K3P] here?
**A.** 3.12

**Q.** For HKHKSPGEKPHRCPQCGKCFARKS [K3H], which protein stability index is on record?
**A.** 4.24

**Q.** Which protein stability index does the source give for HKWKSPGEKPHRCPQCGKCFARKS [K3W] here?
**A.** 3.1

**Q.** For HKMKSPGEKPHRCPQCGKCFARKS [K3M], which protein stability index is on record?
**A.** 3.42

**Q.** With HKDKSPGEKPHRCPQCGKCFARKS [K3D] as the variant, how does the protein stability index read?
**A.** 2.5

**Q.** With HKYKSPGEKPHRCPQCGKCFARKS [K3Y] as the variant, how does the protein stability index read?
**A.** 2.02

**Q.** For HKTKSPGEKPHRCPQCGKCFARKS [K3T], which protein stability index is on record?
**A.** 2.07

**Q.** Which protein stability index does the source give for HKLKSPGEKPHRCPQCGKCFARKS [K3L] here?
**A.** 3.46

**Q.** With HKAKSPGEKPHRCPQCGKCFARKS [K3A] as the variant, how does the protein stability index read?
**A.** 3.73

**Q.** With HKGKSPGEKPHRCPQCGKCFARKS [K3G] as the variant, how does the protein stability index read?
**A.** 3.33
